Experiments:
Assay in all cases: LC-MS product quantification, Lineweaver-Burk
Type in all cases: biochemical, Populus trichocarpa
[1] = system: COc1cc(/C=C/CO)ccc1O; details: saturating p-hydroxybenzoyl-CoA, 50 mM sodium phosphate pH 6, 1 mM DTT, wheatgerm cell-free enzyme
Description: (§1) LC-MS product quantification, Lineweaver-Burk on pHBMT1 (Potri.001G448000)

[2] = system: COc1cc(/C=C/CO)cc(OC)c1O; details: saturating p-hydroxybenzoyl-CoA, 50 mM sodium phosphate pH 6, 1 mM DTT, wheatgerm cell-free enzyme
Description: as §1

[3] = system: CC(C)(COP(=O)(O)OP(=O)(O)OC[C@H]1O[C@@H](n2cnc3c(N)ncnc32)[C@H](O)[C@@H]1OP(=O)(O)O)[C@@H](O)C(=O)NCCC(=O)NCCSC(=O)c1ccc(O)cc1; details: saturating sinapyl alcohol, 50 mM sodium phosphate pH 6, 1 mM DTT, wheatgerm cell-free enzyme
Description: as §1

pHBMT1 (Potri.001G448000) (Populus trichocarpa)
Km [1]: 954 ± 411 µM | kcat [1]: 0.1 ± 0.02 s⁻¹ | Km [2]: 300 ± 72 µM | kcat [2]: 0.13 ± 0.01 s⁻¹ | kcat/Km [2]: 490 M⁻¹ s⁻¹ | Km [3]: 448 ± 21 µM | kcat [3]: 0.18 ± 0.03 s⁻¹ | kcat/Km [3]: 400 M⁻¹ s⁻¹
